# Measured values reported in article PMC314469, “Protein Interaction Networks by Proteome Peptide Scanning” (PLoS Biology, 2004).
# T1: amphyphisin SH3 (AMPH_HUMAN), P49418
# T1 chain: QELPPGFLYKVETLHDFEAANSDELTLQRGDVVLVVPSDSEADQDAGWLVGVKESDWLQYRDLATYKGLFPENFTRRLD
# Tests used:
# [1] = biological target: endophilin SH3 (SH3G2_HUMAN), Q99962; test: SPOT array
# [2] = biological target: T1, amphyphisin SH3 (AMPH_HUMAN), P49418; test: SPOT array
Binder,"normalised SPOT signal, Boehringer light units (BLU); mean over the file's lines of this peptide [1]","normalised SPOT signal, Boehringer light units (BLU); mean over the file's lines of this peptide [2]"
LDPALRRPGRFDRE [Q9HA41 350-363],159,666
APFLPPKPPPPIIV [Q9BYZ6 230-244],1320,35.1
LEIPPPKPPAPLLH [Q8WXI9 364-378],712,36.7
LDSILRRPYVTSQP [Q9Y5K1 339-352],54.4,10.6
LGASPAKPPSPGAP [Q8WXD9 1320-1334],102,62
LFQPPRRPGLGTVG [Q9HCK5 75-88],1840,1500
LEIPPPKPPAPEMN [Q96F28 217-231],43.4,31.6
LGLPPGKPPSSSPL [Q9H7S9 349-363],45.5,23.4
LFNLIKRPDDEQRQ [Q9P260 301-314],34,16.2
LDPALLRPGRFDRQ [Q9Y4W6 459-472],139,806
LFPPLFRPQRPHSA [Q9ULW2 164-177],10200,5720
LFFELRRPPQHGVL [Q9H6N9 50-63],168,12.7
LELALKRPRPPVLS [Q9ULJ3 268-281],129,29.6
LEESPWKPPTYLFS [Q9P239 478-492],53.3,39.8
LGKVIRRPPLTEKL [Q9NRD6 13-26],277,4.7
APEPPPRPPPALSP [Q96NP9 14-28],2330,962
LEQAFRRPNVNLTS [Q8WVX9 331-344],42.5,43.1
LERRLKRPRTQGVV [Q9H9E5 251-264],20,34.4
APLLPPRPPPLPPV [Q9NR05 56-70],4020,1400

# Continued, values first:
"normalised SPOT signal, Boehringer light units (BLU); mean over the file's lines of this peptide [1]","normalised SPOT signal, Boehringer light units (BLU); mean over the file's lines of this peptide [2]",Binder
538,459,LFIIPPKPPGRPQG [P81489 12-26]
245,218,LGLELGRPVRFLYE [P13942 112-125]
1050,22.2,LGEVPRRPASRGVP [Q969P6 16-29]
346,4700,LDPALMRPGRLDRK [P35998 327-340]
123,2030,LDPALLRPGRLDRK [P43686 317-330]
75.3,4590,LDPALIRPGRIDRK [Q03527 337-350]
117,1620,LDSALLRPGRIDRK [P47210 301-314]
6,14.9,LGDSLRRPQLRLWS [P41440 258-271]
315,1650,LGLRLSRPYRLAAG [O14927 499-512]
61.2,72.5,LGKIPLKPPPLELL [O15504 407-421]
2.6,12.6,LEDSPKRPKEAENP [P51858 162-175]
61.1,12.2,LGLLFRRPEALQVG [Q13290 172-185]
0,944,LDPALLRPGRFDKL [Q13608 854-867]
108,37.6,LDPALRRPSQKVYR [O15047 30-43]
311,2880,LDPALMRPGRFHRQ [O43931 13-26]
4540,1100,LDPLPRRPPAGRRG [BAC04326 52-66]
54.6,451,LEYVLFRPNRRYNQ [Q15018 147-160]
29.7,28,APELLKRPKEYTVR [O14897 560-573]
3050,241,LEFPPRRPFARRRM [O00513 852-865]
264,64.4,LGHPPAKPPLPPGP [Q96QH2 497-511]
122,34.3,LGGSPRRPSGRKGS [Q92729 834-847]
93.1,1410,LETSLKRPKRPLFN [Q96RW7 67-80]
147,68.8,LEQLLLRPERPGDT [O43157 127-140]
